In the supplement of paper PMC9876800:

Test system: peptide library, one residue held at a place counted from the S/T acceptor
Test: relative phosphorylation of the sub-library (ratio to the mean residue at this position); human; higher = residue favoured
Outline: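 Purified recombinant kinases were reacted in 384-well plates with biotinylated degenerate peptide sub-libraries, each having one residue fixed at one position around a central Ser/Thr. The reaction mix contained 50 μM peptide plus 50 μM ATP spiked with γ-32P-ATP and ran for 90 min under kinase-specific conditions. Relative sub-library phosphorylation, taken from densitometry of phosphorimaged streptavidin membrane spots, is a ratio to the mean residue at that position.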

GRK2, construct: Full length, sequence (P25098 whole entry, looked up): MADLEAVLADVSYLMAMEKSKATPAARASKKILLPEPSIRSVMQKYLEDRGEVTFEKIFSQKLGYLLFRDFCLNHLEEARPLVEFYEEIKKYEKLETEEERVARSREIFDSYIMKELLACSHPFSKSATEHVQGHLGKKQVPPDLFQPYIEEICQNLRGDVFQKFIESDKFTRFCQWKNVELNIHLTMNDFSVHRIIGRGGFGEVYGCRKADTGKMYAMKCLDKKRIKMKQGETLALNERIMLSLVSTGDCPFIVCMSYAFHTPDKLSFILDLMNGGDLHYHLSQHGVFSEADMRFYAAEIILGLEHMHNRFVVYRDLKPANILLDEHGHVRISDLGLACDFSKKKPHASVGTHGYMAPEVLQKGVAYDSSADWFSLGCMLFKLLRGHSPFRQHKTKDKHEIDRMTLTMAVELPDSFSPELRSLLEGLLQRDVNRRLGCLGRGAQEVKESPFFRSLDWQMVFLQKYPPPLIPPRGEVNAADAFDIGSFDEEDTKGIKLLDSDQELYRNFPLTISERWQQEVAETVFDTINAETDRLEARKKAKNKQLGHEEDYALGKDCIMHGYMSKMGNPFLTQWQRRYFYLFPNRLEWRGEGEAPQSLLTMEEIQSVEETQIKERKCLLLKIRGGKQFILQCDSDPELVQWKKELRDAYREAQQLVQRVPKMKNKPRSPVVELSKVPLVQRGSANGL
CAMK1, construct: Full length, sequence (Q14012 whole entry, looked up): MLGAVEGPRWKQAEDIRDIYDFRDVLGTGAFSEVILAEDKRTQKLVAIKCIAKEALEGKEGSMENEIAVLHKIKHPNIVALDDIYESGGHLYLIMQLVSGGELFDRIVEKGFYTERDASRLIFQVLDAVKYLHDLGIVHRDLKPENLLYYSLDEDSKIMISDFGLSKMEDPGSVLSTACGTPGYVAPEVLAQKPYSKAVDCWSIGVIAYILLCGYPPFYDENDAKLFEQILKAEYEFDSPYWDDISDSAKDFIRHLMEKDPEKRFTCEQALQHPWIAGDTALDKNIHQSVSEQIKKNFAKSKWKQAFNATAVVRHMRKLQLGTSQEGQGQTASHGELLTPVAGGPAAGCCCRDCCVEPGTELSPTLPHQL

PRKCG, construct: Full length (from UniProt P05129)
relative phosphorylation
Details | at +1 | at +2 | at +3 | at +4 | at -1 | at -2 | at -3 | at -4 | at -5
A fixed | 0.569 | 0.495 | 0.701 | 0.922 | 0.946 | 0.862 | 0.699 | 1.09 | 1.16
D fixed | 0.22 | 0.261 | 0.452 | 0.666 | 0.538 | 0.455 | 0.412 | 0.62 | 0.676
E fixed | 0.29 | 0.183 | 0.628 | 0.508 | 0.477 | 0.388 | 0.415 | 0.708 | 0.554
F fixed | 1.46 | 0.545 | 0.842 | 0.662 | 0.479 | 0.72 | 0.771 | 0.818 | 1.21
G fixed | 0.516 | 0.337 | 1.06 | 1.27 | 1.87 | 1.19 | 1.06 | 1.32 | 1.23
H fixed | 0.686 | 1.26 | 1.23 | 1.32 | 0.972 | 1.12 | 1.3 | 1.28 | 1.23
I fixed | 1.37 | 0.507 | 0.723 | 0.507 | 0.311 | 0.329 | 0.381 | 0.49 | 0.572
K fixed | 1.92 | 4.06 | 2.11 | 2.56 | 1.87 | 2.01 | 2 | 1.55 | 1.71
L fixed | 1.34 | 0.484 | 0.932 | 0.531 | 0.548 | 0.409 | 0.469 | 0.506 | 0.589
M fixed | 1.56 | 0.599 | 0.738 | 0.586 | 0.741 | 0.606 | 0.652 | 0.767 | 0.572
N fixed | 0.652 | 0.609 | 1.02 | 1.01 | 1.24 | 1.28 | 1.08 | 1.1 | 0.85
P fixed | 0.333 | 0.334 | 0.516 | 1.36 | 1.16 | 1.16 | 1.12 | 1.09 | 0.937
Q fixed | 1.15 | 0.688 | 0.856 | 1.09 | 1.08 | 1.21 | 0.934 | 1.05 | 0.887
R fixed | 1.98 | 4.33 | 2.43 | 1.97 | 2.85 | 2.99 | 3.78 | 1.94 | 1.71
V fixed | 1.15 | 0.48 | 0.608 | 0.563 | 0.497 | 0.418 | 0.496 | 0.639 | 0.723
W fixed | 0.751 | 0.6 | 1.03 | 0.817 | 0.558 | 1 | 0.707 | 1.23 | 1.54
Y fixed | 1.05 | 1.22 | 1.12 | 0.664 | 0.869 | 0.841 | 0.725 | 0.799 | 0.848
pThr fixed | 0.973 | 0.563 | 0.673 | 0.486 | 0.484 | 0.746 | 0.805 | 0.947 | 0.683
pTyr fixed | 0.794 | 0.916 | 0.911 | 0.498 | 0.875 | 0.842 | 0.973 | 0.86 | 0.8

PKN2, construct: aa501-984 (from UniProt Q16513)
relative phosphorylation
Details | at +1 | at +2 | at +3 | at +4 | at -1 | at -2 | at -3 | at -4 | at -5
A fixed | 0.532 | 0.768 | 0.837 | 0.925 | 0.905 | 1.1 | 0.867 | 1.11 | 0.963
D fixed | 0.318 | 0.322 | 0.543 | 0.614 | 0.962 | 0.35 | 0.321 | 0.59 | 0.503
E fixed | 0.293 | 0.32 | 0.545 | 0.609 | 0.719 | 0.357 | 0.347 | 0.669 | 0.522
F fixed | 2.82 | 0.467 | 0.753 | 0.535 | 0.602 | 0.671 | 0.464 | 0.749 | 0.806
G fixed | 0.43 | 0.554 | 0.938 | 1.17 | 1.32 | 0.949 | 0.823 | 1.19 | 1.04
H fixed | 0.805 | 1.63 | 1.22 | 1.25 | 1.16 | 1.43 | 1.49 | 1.16 | 0.946
I fixed | 1.34 | 0.836 | 0.888 | 0.877 | 0.514 | 0.569 | 0.514 | 0.861 | 1.45
K fixed | 1.33 | 2.49 | 1.85 | 1.94 | 1.66 | 2.17 | 2.37 | 1.82 | 1.43
L fixed | 1.25 | 0.927 | 0.946 | 0.785 | 0.833 | 0.571 | 0.61 | 0.804 | 1.34
M fixed | 1.84 | 0.788 | 0.839 | 0.804 | 0.825 | 0.852 | 0.643 | 0.928 | 0.723
N fixed | 0.75 | 1.02 | 0.861 | 0.994 | 1.37 | 1.13 | 0.736 | 0.938 | 0.78
P fixed | 0.252 | 0.471 | 0.557 | 1.2 | 1.06 | 0.538 | 0.681 | 0.831 | 0.99
Q fixed | 0.82 | 0.758 | 0.998 | 0.998 | 1.04 | 1.11 | 0.898 | 1.09 | 0.89
R fixed | 1.44 | 3.42 | 2.22 | 1.7 | 1.71 | 2.83 | 4.31 | 1.59 | 1.84
V fixed | 0.927 | 0.8 | 0.875 | 0.787 | 0.74 | 0.752 | 0.512 | 0.985 | 1.23
W fixed | 0.855 | 0.536 | 0.979 | 0.987 | 0.775 | 0.801 | 0.661 | 0.871 | 0.723
Y fixed | 0.997 | 0.885 | 1.15 | 0.825 | 0.811 | 0.82 | 0.742 | 0.809 | 0.824
pThr fixed | 1.05 | 1.15 | 0.818 | 0.683 | 0.799 | 0.836 | 0.743 | 1.11 | 0.683
pTyr fixed | 0.572 | 0.884 | 0.864 | 0.666 | 0.856 | 0.711 | 0.977 | 0.741 | 0.863

GRK2, construct: Full length (from UniProt P25098)
relative phosphorylation
Details | at +1 | at +2 | at +3 | at +4 | at -1 | at -2 | at -3 | at -4 | at -5
A fixed | 0.812 | 1.17 | 0.782 | 0.874 | 0.876 | 0.822 | 1.03 | 0.901 | 0.914
D fixed | 1.1 | 0.929 | 1.42 | 1.35 | 1.14 | 1.38 | 1.9 | 1.41 | 1.34
E fixed | 1.47 | 0.883 | 1.37 | 1.25 | 1.34 | 3.01 | 2.28 | 1.54 | 1.13
F fixed | 1.27 | 1.18 | 1.13 | 1.02 | 1.02 | 0.961 | 0.768 | 0.915 | 1.14
G fixed | 0.766 | 0.755 | 0.817 | 0.928 | 0.726 | 0.718 | 0.766 | 0.897 | 0.839
H fixed | 0.977 | 1.09 | 1.02 | 1.07 | 1.06 | 0.813 | 0.831 | 0.969 | 0.931
I fixed | 1.03 | 1.18 | 0.892 | 0.892 | 0.862 | 0.724 | 0.732 | 0.847 | 0.898
K fixed | 0.79 | 0.747 | 0.778 | 0.84 | 0.919 | 0.741 | 0.815 | 0.965 | 0.912
L fixed | 0.883 | 0.886 | 1.01 | 0.935 | 0.928 | 0.832 | 0.742 | 0.899 | 0.88
M fixed | 1.08 | 0.965 | 0.981 | 0.975 | 0.971 | 0.872 | 0.8 | 0.951 | 0.931
N fixed | 0.879 | 0.969 | 0.996 | 1.07 | 1.04 | 0.926 | 0.924 | 0.99 | 0.95
P fixed | 0.791 | 0.627 | 0.765 | 0.926 | 1.24 | 0.931 | 0.864 | 0.975 | 0.896
Q fixed | 1.12 | 0.872 | 0.939 | 0.994 | 0.978 | 0.928 | 0.889 | 0.944 | 0.91
R fixed | 0.838 | 0.768 | 0.791 | 0.843 | 0.979 | 0.974 | 1.43 | 0.998 | 1.04
V fixed | 1.15 | 1.37 | 0.855 | 0.854 | 0.911 | 0.701 | 0.665 | 0.813 | 0.918
W fixed | 1.04 | 1.3 | 1.25 | 1.18 | 0.876 | 0.832 | 0.789 | 1.06 | 1.19
Y fixed | 1.01 | 1.31 | 1.22 | 0.998 | 1.12 | 0.843 | 0.787 | 0.932 | 1.18
pThr fixed | 7.25 | 1.18 | 1.22 | 1.95 | 1.18 | 3.63 | 3.44 | 2.09 | 1.27
pTyr fixed | 2.37 | 1.57 | 1.47 | 1.62 | 2.11 | 14.3 | 3.56 | 2.58 | 1.57

CAMK1, construct: Full length (from UniProt Q14012)
relative phosphorylation
Details | at +1 | at +2 | at +3 | at +4 | at -1 | at -2 | at -3 | at -4 | at -5
A fixed | 0.669 | 0.817 | 0.709 | 0.598 | 0.804 | 1.02 | 0.635 | 0.826 | 0.346
D fixed | 0.448 | 0.609 | 1.01 | 0.758 | 0.925 | 0.25 | 0.157 | 0.285 | 0.205
E fixed | 0.497 | 0.508 | 0.699 | 0.628 | 0.483 | 0.322 | 0.178 | 0.542 | 0.189
F fixed | 2.41 | 1.16 | 1.44 | 1.44 | 0.637 | 0.398 | 0.201 | 0.833 | 1.56
G fixed | 0.623 | 0.554 | 0.911 | 0.897 | 0.773 | 0.607 | 0.218 | 0.614 | 0.402
H fixed | 0.834 | 1.26 | 1.23 | 0.911 | 1.17 | 0.757 | 0.603 | 0.942 | 0.527
I fixed | 0.715 | 1.06 | 0.751 | 1.42 | 0.49 | 0.413 | 0.165 | 1.03 | 1.49
K fixed | 1.35 | 1.13 | 0.881 | 0.821 | 1.87 | 2.03 | 2.38 | 2.62 | 0.663
L fixed | 0.767 | 1.16 | 0.962 | 1.82 | 0.965 | 0.54 | 0.188 | 1.12 | 2.97
M fixed | 1.21 | 0.986 | 0.938 | 1.37 | 1.01 | 1.33 | 0.252 | 1.13 | 1.39
N fixed | 1.13 | 1.18 | 1.64 | 1.07 | 2.03 | 0.856 | 0.369 | 0.802 | 0.394
P fixed | 0.263 | 0.598 | 0.75 | 1.21 | 1.31 | 0.245 | 0.274 | 0.575 | 1.54
Q fixed | 1.44 | 1 | 1.14 | 1.01 | 1.23 | 2.24 | 0.784 | 1.11 | 0.976
R fixed | 1.96 | 1.42 | 0.961 | 0.679 | 1.59 | 4.18 | 9.87 | 2.11 | 1.8
V fixed | 0.758 | 0.857 | 0.663 | 0.732 | 0.504 | 0.469 | 0.177 | 1.01 | 0.676
W fixed | 0.932 | 1.36 | 1.38 | 0.911 | 0.45 | 0.842 | 0.325 | 0.633 | 0.924
Y fixed | 0.99 | 1.34 | 0.935 | 0.716 | 0.753 | 0.488 | 0.227 | 0.827 | 0.946
pThr fixed | 0.649 | 0.596 | 0.601 | 0.682 | 0.288 | 0.264 | 0.201 | 0.389 | 0.248
pTyr fixed | 0.654 | 1.94 | 0.848 | 0.605 | 0.604 | 0.361 | 0.473 | 0.445 | 0.461
